Sequences and labels used below:
B1: GLS3000 L27bP one-arm antibody (H chain CE115HA000) (antibody, human IgG1, kappa, L234A L235A, N297A, name in Kabat numbering)
heavy: QVQLVESGGGVVQPGRSLRLSCAASGFTFSNAWMHWVRQAPGKGLEWVAQIKAKSNNYATYYAESVKGRFTISRDDSKNSLYLQMNSLKTEDTAVYYCRYVHYGAYYGVDAWGQGTTVTVSSASTKGPSVFPLAPSSKSTSGGTAALGCLVKDYFPEPVTVSWNSGALTSGVHTFPAVLQSSGLYSLSSVVTVPSSSLGTQTYICNVNHKPSNTKVDKKVEPKSCDKTHTCPPCPAPEAAGGPSVFLFPPKPKDTLMISRTPEVTCVVVDVSHEDPEVKFNWYVDGVEVHNAKTKPREEQYASTYRVVSVLTVLHQDWLNGKEYKCKVSNKALPAPIEKTISKAKGQPREPQVYTLPPSRCELTKNQVSLSCAVKGFYPSDIAVEWESNGQPENNYKTTPPVLDSDGSFFLVSKLTVDKSRWQQGNVFSCSVMHEALHNHYTQKSLSLSPDYKDDDDK
chain: EPKSSDKTHTCPPCPAPELLGGPSVFLFPPKPKDTLMISRTPEVTCVVVDVSHEDPEVKFNWYVDGVEVHNAKTKPREEQYNSTYRVVSVLTVLHQDWLNGKEYKCKVSNKALPAPIEKTISKAKGQPREPQVCTLPPSRDELTKNQVSLWCLVKGFYPSDIAVEWESNGQPENNYKTTPPVLDSDGSFFLYSKLTVDKSRWQQGNVFSCSVMHEALHNRYTQKSLSLSP
light: DIVMTQSPLSLPVTPGEPASISCRSSQSPVHSNRNTYLHWYQQKPGQAPRLLIYKVSNRFSGVPDRFSGSGSGTDFTLKISRVEAEDVGVYYCGQGTQVPYTFGQGTKLEIKRTVAAPSVFIFPPSDEQLKSGTASVVCLLNNFYPREAKVQWKVDNALQSGNSQESVTEQDSKDSTYSLSSTLTLSKADYEKHKVYACEVTHQGLSSPVTKSFNRGEC
notes: one-arm antibody
B2: GLS3000 L33D one-arm antibody (H chain CE115HA000) (antibody, human IgG1, kappa, L234A L235A, N297A, name in Kabat numbering)
heavy: B1 heavy
chain: B1 chain
light: B1 light with P29L, L38D
notes: one-arm antibody
B3: GLS3000 L27bV one-arm antibody (H chain CE115HA000) (antibody, human IgG1, kappa, L234A L235A, N297A, name in Kabat numbering)
heavy: B1 heavy
chain: B1 chain
light: B1 light with P29V
notes: one-arm antibody
B4: GLS3000 N28M one-arm antibody (H chain CE115HA000) (antibody, human IgG1, kappa, L234A L235A, N297A, name in Kabat numbering)
heavy: B1 heavy
chain: B1 chain
light: B1 light with P29L, N33M
notes: one-arm antibody
B5: GLS3000 N28H one-arm antibody (H chain CE115HA000) (antibody, human IgG1, kappa, L234A L235A, N297A, name in Kabat numbering)
heavy: B1 heavy
chain: B1 chain
light: B1 light with P29L, N33H
notes: one-arm antibody
B6: GLS3000 N28Q one-arm antibody (H chain CE115HA000) (antibody, human IgG1, kappa, L234A L235A, N297A, name in Kabat numbering)
heavy: B1 heavy
chain: B1 chain
light: B1 light with P29L, N33Q
notes: one-arm antibody
B7: GLS3000 N28P one-arm antibody (H chain CE115HA000) (antibody, human IgG1, kappa, L234A L235A, N297A, name in Kabat numbering)
heavy: B1 heavy
chain: B1 chain
light: B1 light with P29L, N33P
notes: one-arm antibody
B8: GLS3000 L27bW one-arm antibody (H chain CE115HA000) (antibody, human IgG1, kappa, L234A L235A, N297A, name in Kabat numbering)
heavy: B1 heavy
chain: B1 chain
light: B1 light with P29W
notes: one-arm antibody
B9: GLS3000 N28A one-arm antibody (H chain CE115HA000) (antibody, human IgG1, kappa, L234A L235A, N297A, name in Kabat numbering)
heavy: B1 heavy
chain: B1 chain
light: B1 light with P29L, N33A
notes: one-arm antibody
B10: GLS3000 L27bS one-arm antibody (H chain CE115HA000) (antibody, human IgG1, kappa, L234A L235A, N297A, name in Kabat numbering)
heavy: B1 heavy
chain: B1 chain
light: B1 light with P29S
notes: one-arm antibody
B11: GLS3000 N28D one-arm antibody (H chain CE115HA000) (antibody, human IgG1, kappa, L234A L235A, N297A, name in Kabat numbering)
heavy: B1 heavy
chain: B1 chain
light: B1 light with P29L, N33D
notes: one-arm antibody
B12: GLS3000 L33A one-arm antibody (H chain CE115HA000) (antibody, human IgG1, kappa, L234A L235A, N297A, name in Kabat numbering)
heavy: B1 heavy
chain: B1 chain
light: B1 light with P29L, L38A
notes: one-arm antibody
B13: GLS3000 N28K one-arm antibody (H chain CE115HA000) (antibody, human IgG1, kappa, L234A L235A, N297A, name in Kabat numbering)
heavy: B1 heavy
chain: B1 chain
light: B1 light with P29L, N33K
notes: one-arm antibody
B14: GLS3000 N28T one-arm antibody (H chain CE115HA000) (antibody, human IgG1, kappa, L234A L235A, N297A, name in Kabat numbering)
heavy: B1 heavy
chain: B1 chain
light: B1 light with P29L, N33T
notes: one-arm antibody
B15: GLS3000 N28L one-arm antibody (H chain CE115HA000) (antibody, human IgG1, kappa, L234A L235A, N297A, name in Kabat numbering)
heavy: B1 heavy
chain: B1 chain
light: B1 light with P29L, N33L
notes: one-arm antibody
B16: GLS3000 N28S one-arm antibody (H chain CE115HA000) (antibody, human IgG1, kappa, L234A L235A, N297A, name in Kabat numbering)
heavy: B1 heavy
chain: B1 chain
light: B1 light with P29L, N33S
notes: one-arm antibody
B17: GLS3000 N28I one-arm antibody (H chain CE115HA000) (antibody, human IgG1, kappa, L234A L235A, N297A, name in Kabat numbering)
heavy: B1 heavy
chain: B1 chain
light: B1 light with P29L, N33I
notes: one-arm antibody
B18: GLS3000 N28G one-arm antibody (H chain CE115HA000) (antibody, human IgG1, kappa, L234A L235A, N297A, name in Kabat numbering)
heavy: B1 heavy
chain: B1 chain
light: B1 light with P29L, N33G
notes: one-arm antibody
B19: GLS3000 L27bY one-arm antibody (H chain CE115HA000) (antibody, human IgG1, kappa, L234A L235A, N297A, name in Kabat numbering)
heavy: B1 heavy
chain: B1 chain
light: B1 light with P29Y
notes: one-arm antibody
B20: GLS3000 N28F one-arm antibody (H chain CE115HA000) (antibody, human IgG1, kappa, L234A L235A, N297A, name in Kabat numbering)
heavy: B1 heavy
chain: B1 chain
light: B1 light with P29L, N33F
notes: one-arm antibody
B21: GLS3000 N28E one-arm antibody (H chain CE115HA000) (antibody, human IgG1, kappa, L234A L235A, N297A, name in Kabat numbering)
heavy: B1 heavy
chain: B1 chain
light: B1 light with P29L, N33E
notes: one-arm antibody

Numbering of substitutions follows the chain as printed. Names and notes keep the numbering of the source.

T1 sequence (P07766 23-126): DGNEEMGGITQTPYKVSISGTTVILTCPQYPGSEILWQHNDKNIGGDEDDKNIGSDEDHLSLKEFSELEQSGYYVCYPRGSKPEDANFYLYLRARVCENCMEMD

This test addresses T1, CD3 epsilon homodimer protein (UniProt P07766 23-126).
T1 construct: also called CD3 (CD3 epsilon)
Kind of test: SPR, CD3e homodimer on chip.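 Note: surface plasmon resonance at 25 degrees C, antibodies flowed as analyte over CD3 epsilon homodimer amine-coupled to a CM4 chip, running buffer HBS-EP+.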 On the technique in general: SPR reads the build-up and loss of mass on a sensor chip optically.
On to B1, for which the “ratio of amounts bound (altered form / unaltered GLS3000 antibody)” value amounted to 0.91.
For the molecule B2, the “ratio of amounts bound (altered form / unaltered GLS3000 antibody)” value was 0.17.
On to B3, for which the “ratio of amounts bound (altered form / unaltered GLS3000 antibody)” value came to 1.12.
For B4, the “ratio of amounts bound (altered form / unaltered GLS3000 antibody)” value was found to be 0.39.
Regarding B5, the “ratio of amounts bound (altered form / unaltered GLS3000 antibody)” value came to 0.42.
Under B6 stands 0.37; under B7, 0.36; under B8, 0.26.
In the case of B9 it was 0.25; in that of B10, 0.71.
Regarding B11, the “ratio of amounts bound (altered form / unaltered GLS3000 antibody)” value amounted to 0.19.
Take B12: the “ratio of amounts bound (altered form / unaltered GLS3000 antibody)” value is 0.85.
As for B13, the “ratio of amounts bound (altered form / unaltered GLS3000 antibody)” value was 0.44.
As to B14, the “ratio of amounts bound (altered form / unaltered GLS3000 antibody)” value was 0.45.
Consider B15, for which the “ratio of amounts bound (altered form / unaltered GLS3000 antibody)” value was found to be 0.39.
On to B16, for which the “ratio of amounts bound (altered form / unaltered GLS3000 antibody)” value is 0.32.
With B17, the “ratio of amounts bound (altered form / unaltered GLS3000 antibody)” value turned out to be 0.44.
On to B18, for which the “ratio of amounts bound (altered form / unaltered GLS3000 antibody)” value worked out at 0.46.
As to B19, the “ratio of amounts bound (altered form / unaltered GLS3000 antibody)” value came out at 0.25.
As for B20, the “ratio of amounts bound (altered form / unaltered GLS3000 antibody)” value turned out to be 0.46.
Consider B21, for which the “ratio of amounts bound (altered form / unaltered GLS3000 antibody)” value is 0.4.

The values are drawn from patent US20240270846A1 (published 2024).
